We go through one molecule from paper PMC11984302.

The data set concerns the target thrombin (human plasma, Sigma-Aldrich) (Homo sapiens, UniProt P00734;P00734 328-363;364-622). Briefly: EMSA; 1 nM aptamer, thrombin 0.1x-100x; SICS: thrombin in 1 M KCl (or 150 mM KCl), pH 7.5, 30 min incubation, 300 mV; gel: 16% Tris-Glycine; temperature not stated. (In general: In EMSA bound probe runs differently from free probe, usually more slowly.)

B1: extended TBA 1 annealed to Cy5 gap oligo (mixed)
DNA 1: TCAGCTTGCGGAGATGCGATGGTTGGTGTGGTTGGATCGAGAAAAAGGTACGCCC
DNA 2: GGGCGTACCTTTTTCTCGATATCGCATCTCCGCAAGCTGA
In the case of B1, the binding result was “binds”.
